This is an account of results in US20180208680A1 (published 2018).

What is called Kd is the constant that tells how readily two partners part at equilibrium.

For assay [1], the target named is T1, BoNT/DC mosaic toxin (Clostridium botulinum). As to the kind of experiment: yeast scFv FACS.
The target of assay [2] is T2, BoNT/C1 holotoxin (Clostridium botulinum, UniProt P18640 2-1291).
T2 sequence: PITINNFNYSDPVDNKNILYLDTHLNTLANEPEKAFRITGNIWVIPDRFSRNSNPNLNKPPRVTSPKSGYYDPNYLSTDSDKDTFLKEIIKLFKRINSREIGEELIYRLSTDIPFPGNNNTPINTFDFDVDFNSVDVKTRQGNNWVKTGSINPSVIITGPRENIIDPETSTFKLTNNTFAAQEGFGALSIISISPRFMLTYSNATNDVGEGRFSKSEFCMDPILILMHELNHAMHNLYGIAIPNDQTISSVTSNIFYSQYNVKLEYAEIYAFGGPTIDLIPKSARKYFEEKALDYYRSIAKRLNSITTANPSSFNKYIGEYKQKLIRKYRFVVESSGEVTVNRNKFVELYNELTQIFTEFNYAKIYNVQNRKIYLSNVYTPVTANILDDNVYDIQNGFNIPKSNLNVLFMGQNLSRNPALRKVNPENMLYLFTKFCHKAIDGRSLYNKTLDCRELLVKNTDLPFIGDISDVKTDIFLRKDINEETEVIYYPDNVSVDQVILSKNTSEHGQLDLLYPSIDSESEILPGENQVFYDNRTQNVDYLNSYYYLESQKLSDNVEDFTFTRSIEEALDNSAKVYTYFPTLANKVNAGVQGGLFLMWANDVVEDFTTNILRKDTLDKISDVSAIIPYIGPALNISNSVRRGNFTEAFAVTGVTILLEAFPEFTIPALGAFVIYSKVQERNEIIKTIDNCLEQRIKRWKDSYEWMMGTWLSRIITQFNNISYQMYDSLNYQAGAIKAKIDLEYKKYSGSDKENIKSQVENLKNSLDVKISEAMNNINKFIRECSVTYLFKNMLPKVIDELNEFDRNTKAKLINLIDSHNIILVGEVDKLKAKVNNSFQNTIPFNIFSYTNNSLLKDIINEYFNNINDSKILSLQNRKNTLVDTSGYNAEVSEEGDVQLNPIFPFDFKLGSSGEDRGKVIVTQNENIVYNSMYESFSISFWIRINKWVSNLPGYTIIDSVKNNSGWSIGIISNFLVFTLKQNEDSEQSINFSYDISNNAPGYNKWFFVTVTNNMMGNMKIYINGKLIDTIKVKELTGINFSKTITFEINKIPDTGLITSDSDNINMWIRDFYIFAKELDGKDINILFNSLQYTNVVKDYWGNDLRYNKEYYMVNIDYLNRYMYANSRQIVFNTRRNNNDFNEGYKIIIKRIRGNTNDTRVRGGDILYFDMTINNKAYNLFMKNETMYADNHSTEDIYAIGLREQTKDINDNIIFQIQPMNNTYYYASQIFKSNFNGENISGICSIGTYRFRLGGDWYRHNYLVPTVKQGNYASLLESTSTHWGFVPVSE
Put plainly: yeast scFv FACS.

Assay [3] deals with T2, BoNT/C1 holotoxin. Put plainly: yeast scFv FACS. The source holds these as a separate data set.
Assay [4] concerns the target T1, BoNT/DC mosaic toxin. Put plainly: IgG KinExA.
The target of assay [5] is T2, BoNT/C1 holotoxin. Put plainly: IgG KinExA.

B1: 4C10 scFv (scFv, V domains shown)
VH: QVQLVESGGGAVQPGESLRLSCAASGFTFSGFDMHWVRQSPGRGLEWVARISHDGSMADYADSLRGRFTISRDNPKNTLYLHMNSLRVEDTALYYCAKDRWRSGSYPAFEKWGQGTMVTVSS
VL: QSVPTQPASVSGSPGQSITISCTGTSSDVGAYNYVSWYQQHPGKAPKLMIYDVSDRPSGVSNRFSGSKSGNTASLTISGLQAEDEADYYCSSYTSSSTYVFGTGTKLTVL
For the molecule B1, in the assay with BoNT/DC mosaic toxin [1], binding was put at a Kd of 107 nM.

B2: 4C4 scFv (scFv, V domains shown)
VH: QVQLVESGPGLVKPSQTLSLTCSVSGASINNSPYFWNWFRQFPGKGLEWIGYIYWSGSTNYNPSLKSRLAMSVDTSKNQFSLKLTSATAADTAVYYCARDQGGGTVVKENWFDPWGQGTLVTVSS
VL: DIVMTQSPSSLSASVGDRLTMTCQASQDIGKHLNWYQQKAGKPPKLLIYGASNLKTGVPSRFSAGVSWTDFTFTISNVQPEDVATYYCQQSYSTPPTFGQGTKVEIKR
For B2, the Kd with BoNT/DC mosaic toxin [1] came to 0.58 nM; in the assay with BoNT/C1 holotoxin [2], 3 nM; in the assay with BoNT/C1 holotoxin [3], 2.6 nM.

B3: 4C4.2 IgG (antibody, V domains shown)
VH: QVQLVESGPGLVKPSQTLSLTCSVSGASINNSPYFWNWFRQFPGKGLEWIGYIYWSGSTNYNPSLKSRLAMSVDTSKNQFSLKLTSATAADTAVYYCARDQGGGTVVKENWFDPWGQGTLVTVSS
VL: DIQMTQSPSTLSASVGDRVTITCRASQSIGTYLNWYQQKPGRAPTLLVSRTSNLHTGVPSRFSGDGSGSHFSLTIDSLQPEDFATYYCQQSHTSPVTFGQGTKVEIK
For B3, the Kd in the assay with BoNT/DC mosaic toxin [4] worked out at 0.126 nM; with BoNT/C1 holotoxin [5] it was 0.035 nM.

B4: 4C4 IgG (antibody, V domains shown)
VH: QVQLVESGPGLVKPSQTLSLTCSVSGASINNSPYFWNWFRQFPGKGLEWIGYIYWSGSTNYNPSLKSRLAMSVDTSKNQFSLKLTSATAADTAVYYCARDQGGGTVVKENWFDPWGQGTLVTVSS
VL: DIVMTQSPSSLSASVGDRLTMTCQASQDIGKHLNWYQQKAGKPPKLLIYGASNLKTGVPSRFSAGVSWTDFTFTISNVQPEDVATYYCQQSYSTPPTFGQGTKVEIK
B4: the Kd is 0.577 nM with BoNT/DC mosaic toxin [4] and 0.835 nM in the assay with BoNT/C1 holotoxin [5].

B5: 4C4.2 scFv (scFv, V domains shown)
VH: QVQLVESGPGLVKPSQTLSLTCSVSGASINNSPYFWNWFRQFPGKGLEWIGYIYWSGSTNYNPSLKSRLAMSVDTSKNQFSLKLTSATAADTAVYYCARDQGGGTVVKENWFDPWGQGTLVTVSS
VL: DIQMTQSPSTLSASVGDRVTITCRASQSIGTYLNWYQQKPGRAPTLLVSRTSNLHTGVPSRFSGDGSGSHFSLTIDSLQPEDFATYYCQQSHTSPVTFGQGTKVEIKR
Turning to B5, the figures for the Kd with BoNT/DC mosaic toxin [1] and with BoNT/C1 holotoxin [2] were 0.13 nM and 1.1 nM, respectively.

B6: 4C4.1 scFv (scFv, V domains shown)
VH: QVQLVESGPGLVKPSQTLSLTCSVSGASINNSPYFWNWFRQFPGKGLEWIGYIYWSGSTNYNPSLKSRLAMSVDTSKNQFSLKLTSATAADTAVYYCARDQGGGTVVKENWFDPWGQGTLVTVSS
VL: ETTLTQSPSSLSASVGDRVSITCRASQSISNYLNWYQQKPGKAPKLLIYAASSLQSGVPSRFSGSGSGTDFTLTISSLQPEDFATYYCQQSYSDPPTFGQGTKVEIKR
For B6, the results for the Kd with BoNT/DC mosaic toxin [1] and in the assay with BoNT/C1 holotoxin [2] were 0.06 nM and 1.5 nM, respectively.

B7: 4C4.1 IgG (antibody, V domains shown)
VH: QVQLVESGPGLVKPSQTLSLTCSVSGASINNSPYFWNWFRQFPGKGLEWIGYIYWSGSTNYNPSLKSRLAMSVDTSKNQFSLKLTSATAADTAVYYCARDQGGGTVVKENWFDPWGQGTLVTVSS
VL: ETTLTQSPSSLSASVGDRVSITCRASQSISNYLNWYQQKPGKAPKLLIYAASSLQSGVPSRFSGSGSGTDFTLTISSLQPEDFATYYCQQSYSDPPTFGQGTKVEIK
Regarding B7, the Kd with BoNT/DC mosaic toxin [4] is 0.058 nM; with BoNT/C1 holotoxin [5], 0.539 nM.

B8: 8DC1.2 IgG (antibody, V domains shown)
VH: QVTLKESGGGLVQPGRSLTLSCPLSGFTSSDYVLHWVRQAPGTGLDWVAVISSDGTKAYYGDSVKGRFTISRDTSKNTLLLQMNSPRAEDTAIYYCAISTRGPFDIWGHGTMVTVSS
VL: DIQMTQSPSSLSAFVGDRITITCRASRGVSNYLAWYQQKPGKAPKLLIYAASSLQSGVPSRFSGSGSGTEFTLTISGLQPDDFATYYCQQYNAYPLTFGGGTKLEIK
B8 had a Kd in the assay with BoNT/C1 holotoxin [5] of 0.736 nM.
